Drawing on paper PMC10979513 (Progress in neurobiology, 2024), this text covers Kd for one molecule.

The target of this assay is T1, recombinant μ4 C-terminal domain (human, residues 160–453) (human, UniProt O00189 160-453).
T1 sequence (looked up): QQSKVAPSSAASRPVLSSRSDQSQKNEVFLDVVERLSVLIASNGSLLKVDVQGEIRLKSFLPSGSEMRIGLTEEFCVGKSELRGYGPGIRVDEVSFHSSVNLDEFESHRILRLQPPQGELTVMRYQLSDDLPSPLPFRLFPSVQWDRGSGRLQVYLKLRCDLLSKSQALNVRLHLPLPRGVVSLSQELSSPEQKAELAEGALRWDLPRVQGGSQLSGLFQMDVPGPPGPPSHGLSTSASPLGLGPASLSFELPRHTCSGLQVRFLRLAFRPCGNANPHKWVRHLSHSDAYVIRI
The assay can be described thus: ITC. Background: ITC needs no label: the signal is the heat of the interaction.

B1: ApoER2 peptide YPAAISSFDR (peptide)
peptide: YPAAISSFDR
For the molecule B1, the Kd turned out to be 26.2 µM.

For orientation: Kd means the constant that tells how readily two partners part at equilibrium.
